Source: the DeepSol protein solubility set

Experiment: soluble on expression in E. coli; label from the status in PepcDB or PDB records

Sequence | soluble on expression in E. coli
MAQEDVTAVATNGAGPVETHLVFTEFKQMLLVEAQKVGDAVTFYKSAFGAIESGHSLYPKRKLDQELPHVLSSELNLAGSSFVVCDVSSLPGFSTAKSEGSGVTFLLGTKDAEAAVAKAVDAGAVKVEVTEAEVELGFKGKVTDPFGVTWIFAEKKTVITDENKEV | soluble
MGSDKIHHHHHHMAIDLLNIARTGVLASQSQLGVTSNNIANANTVGYHRQVATQTTLDSQRLGSSFYGTGTYVSDVKRIYNDYAARELRIGQTTLSAAEASYGKLSELDQIFSQIGKVVPQSLTDLFAGLNSLADLPADLGIRSSTLNDAKQLANSLNQMQSTLNGQLNQTNDQITGMTKRINEISTELANLNLELMKSPNQDPILLDKQDALVQELSQYAQVNVIPLENGAKSIMLGGSIMLVSGEVAMSMSTATGDPFPNELQLMSSIGSQSVKADPSKLGGQLGALFEYRDQTLVPASLELDQLALGVADSFNKLQAQGFDLNGQVGANMFKDINDPLMSLGRVGGFTDNTGNATLGVNIDDTSALTGGSYELSFTAPSTYELRDTQRARLLRLP | not soluble
QGQFFREIENLKEYFNASSPDVAKGGPLFSEILKNWKDESDKKIIQSQIVSFYFKLFENLKDNQVIQRSMDIIKQDMFQKFLNGSSEKLEDFKKLIQIPVDDLQIQRKAINELIKVMNDLS | soluble
MAHHHHHHMSQNKLYKTNYGYNNPILLNKNERNIKTYVNQETMTNKLLTTYNRSPLQSNYEHNIPKIIHSSTIKKQGVINENNGDKIYKPNYRDMNNLYNSKYVFSKNTPEYINGRKQMITVYDNIKNEERNKSINYYKNKNMIKIPSSYNSNNGNKIKSNNVKDGVLQLEKGSIQNVAKNMNTFHNKSNENGKFIKKLNNSNYKEVTSNVDEIRLLNKSLSAKISSSIKTNYEKSNILDHKKNTNVKVSKISIENKKYNIRKKENMKWAPKYNNNNNNNNNKDHKNMIIESVKVVKNPKEINKKKTKIVQNKYKNPLPSYICLHFHDNSLNLNNGLKIFNDMITVDKNQRMKKWNGYEWDVIEKDFHFLIKARYDNKGNIWCINKSYEVLKIMRNKLKNFGHLGKEEIIDIGFDKKNILWCINRKGQLLKWVKTKWDNIQYKGFHKLICFSFDKKGELWAINLKKELAIWNKKNKCWDEKYIKDNLKISCIDFDGDGKLWVVSNSGALLTYSKDQWINFGLVCLDELICISFKKLQE | not soluble
MSLNLTIGTSKFNPPFEVWSGNNSSLYGFDIDLMQEICRRLHATCTFEAYIFDDLFPALKNREVDLVIASMIITDERKKHFIFSLPYMESNSQYITTVDSKISTFDDLHGKKIGVRKGTPYARQVLSENRNNQVIFYELIQDMLLGLSNNQVDASLMDYEAAKYWMASEPYAYKLIGKKYKLIGKKISIGEGYSIMANPDQFVLIKKINKILLEMEADGTYLRLYSEYFEGHHHHHH | soluble
DIQALALLEILDPIREGAAETLDYLRSQEVGLKIISGDNPVTVSSIAQKAGFADYHSYVDCSKITDEELMAMAEETAIFGRVSPHQKKLIIQTLKKAGHTTAMTGDGVNDILALREADCSIVMAEGDPATRQIANLVLLNSDFNDVPE | not soluble
MGSDKIHHHHHHMDDGELEEVFFDEIETIAGKIYLGRIEKIVPGLEAAFVKIGKGRNAFLKLSEINEAYRKTVLKGQEVKEGQKILVQVKKDASGKKGPQVTPQIGIADRFVVIFPFKKVIGVSRKIEDASERRRLRTIAFSLRKKYGVGVIMRTAAEGVDEEEIIKNFERALEKWNQVLQKFRRSRKPKLLYEEDPVEQIIKEKVNSKIDKLIYNDRSLLETLQKYLQNLPKKPEIEYVEGDLFEKFSVYERLKKLLSRTVPLKSGGNIVIDRTEALTVIDVNSESYTDAENQEELALKTNMEAIEEIVRQLILRNIGGIVVIDFIKQKDPKSYEKLLSRFKEVAKRDGTRIEIFGFTNLGLLEITRKRTTRPLDTLLFTRCPVCSGTGKVLSQKILLKRIREDLKKLKDFEEVTLKVHPNMSGYFKREDIKKLQKEFKVKLNLDYGWHDPNSYEIKAKTKKGGK | not soluble
MVIINTAAYHFVSITQPQTLADQIRAHGEIAGLKGTVLIANEGINLFLAGEKEAINAFYAWLCADVRFAALHVKYSVSAYKPFARFKVKVRPEIISFRRGDISPLQVRAPGVSAHTLRDWLRRGCDDNGRRLVMLDARNQQEIAYGTFSGAMTLPITKFTGFPGALAHYRDLLSDATVVSFCTGGIRCEKAVLWMRADGMDNVLQLEGGILGYFEQVGGEGYDGRCFVFDKRVALDPQLRPLYDMRVVASFARSEISLEHHHHHH | not soluble
GERLTIEDGLYLYETSDLLGVAQLANKVNSEKNGDHVYFIENMYINPTNVCEANCSFCGFKRKPGQEGAYTMDSETLLRYVEERWNDNIREFHIVGGHNTDVPFDYYLDTIRTLKKNFPQVTVKAYTGAEIEFFSRLAGISMKEVLEELIKAGLDTLPGGGAEILTERYRAKMSPDKASTDQWLEAHEIAHGLGLKTHATMLYGSIESNEERLIHMDRVRQLQDKTNGYMVFIPLAMQPRSVKAGLKRRTSAFDDMRTIAISRLMLDNIDHIKAYWINIGVQLTQMALTFGSDDIHGTLIEERISHSVGALTSQGITRDELIHLIKSANKTPVER | not soluble
MSKSALDPVEFLKGALEIPSPSGKERAVAEYLAEGMQKLGLKGFVDEADNARGQVGEGPVQVVLLGHIDTVPGQIPVRLEGGRLFGRGAVDAKGPFVAMIFAAAGLSEEARRRLTVHLVGATEEEAPSSKGARFVAPRLKPHYAVIGEPSGWEGITLGYKGRLLVKARREKDHFHSAHHEPNAAEELISYFVAIKAWAEAMNVGQRPFDQVQYTLRDFRVHPAELRQVAEMFFDLRLPPRLPPEEAIRHLTAYAPPTIELEFFGREVPYQGPKDTPLTRAFRQAIRKAGGRPVFKLKTGTSDMNVLAPHWPVPMVAYGPGDSTLDHTPYEHVEVAEFLKGIEVLRGALEALAQTHAGEKEG | soluble
MSLTISILGARVIDPNSGLDQVTDLHLDGGRIVAIGAAPAGFSASRTIQADGLVAAPGLVDLGVSLREPGYSRKGNIASETRAAVAGGVTSLCCPPQTKPVLDTSAVAELILDRAREAANSKVYPVGALTKGLEGEQLAELVALRDTGCVAFGNGLKEIPNNRTLARALEYAATFDLTVVFHSQDRDLAQGGLAHEGAMASFLGLPGIPESAETVALARNLLLVEQSGVRAHFSQITSARGARLIAQAQALGLPVTADVALYQLILTDESLREFSSLYHVQPPLRTAADRDGLREAVKSGVIQAISSHHQPHERDAKLAPFGATEPGISSVELLLPLAMTLVQDGLLDLPTLLARLSSGPAAALRLPAGELKVGGAADLVLFDPQASTVAGEQWFSRGENCPFIGHCLPGAVRYTLVDGHICHEAEGHHHHHH | soluble
MEEAEKPLQVAAVDSSVPRTAELAGITTLDDPLGHMPERFDAFICYCPSDIQFVQEMIRQLEQTNYRLKLCVSDRDVLPGTCVWSIASELIEKRCRRMVVVVSDDYLQSKECDFQTKFALSLSPGAHQKRLIPIKYKAMKKEFPSILRFITVCDYTNPCTKSWFWTRLAKALSLPLEHHHHHH | soluble
SHPALTQLRALRYSKEIPALDPQLLDWLLLEDSMTKRFEQQGKTVSVTMIREGFVEQNEIPEELPLLPKESRYWLREILLSADGEPWLAARTVVPVSTLSGPELALQKLGKTPLGRYLFTSSTLTRDFIEIGRDAGLWGRRSRLRLSGKPLLLTELFLPASPLY | soluble
MADVIEIRGPVYNGSDINDIIDTYGENNALTIDATKFAAFYYDIDDNVTTETLSILAVPGTEGNVIGEGGIVYETTIQQVDYEFYRPAAGWSNYSLIGFFAEKYIPINPDKADKLAKLVLDSDDKYTIRTGEQLDLGEGYSIEAKQVDVDGEKVWLEFTKDGEFVDDEIISVVSGSDNTWEVELDDIQDEDDVVVLRVHVNQVFQGAVDSIAQIEGLWLIDYTNAMKIESDDEFGNLDNVKINGDTLTITNEDTFTLTRDDEEEIAEGLFFKTADDTRALEHHHHHH | soluble
